In the assay the target is pmE2:pFc2 fusion protein (transmembrane domain-deleted classical swine fever virus envelope glycopro (classical swine fever virus)). The assay can be described thus: SEC.

Stoichiometry N data for 1 substance are collected here from publication PMC7223222.

“pmE2:pFc2 fusion protein (transmembrane domain-deleted classical swine fever virus envelope glycopro (Fc fusion)” came in with a stoichiometry N of 3.
